Biological target: sarbecoviruses tested (pseudovirus spikes)
Assay: cell-based or functional assay

Binder | pseudovirus neutralization IC50 [µg/mL]
HSW-1 (antibody, V domains shown) VH: QVQLQQPGAELVKPGTSMKLSCKASGYTFTSYWMHWVKQRPGQGLEWIGMIHPNSGSTKYNENFKSKATLTVDKSSSTAYMQFSSLTSEDSAVYYCVRSGSYYGTTYDYFDYWGQGTTLTVSS VL: DIVLTQSPASLAVSLGQRATISCRASESVNIYGNSFMHWYQQKPGQPPKLLIFRASNLESGIPVRFSGSGSRTDFTLTINPVEADDVATYYCHQSNEDPFTFGSGTKLEIK | > 10
HSW-2 (antibody, V domains shown) VH: QVQLQQSGPELVKPGASVKISCKASGYVFSTSWMSWVKQRPGEGPEWIGRIYPRDGHSSSTGKFKDKATLTADKSSNTAYIHLSSLTSEDSAVYFCARDYGYYYFDYWGQGTTLTVSS VL: DIQMTQSPASLSASVGEAVTITCRLSENVYSFLAWYQQKQGKSPQLLVYRAKTLAEGVPSRFSGSGSGTQFSLKINSLQPEDFGTYYCQHHYGTPPTFGGGTKLEIK | > 10
